Laboratory results taken from patent US20190153113A1, “CD39 VASCULAR ISOFORM TARGETING AGENTS” (INNATE PHARMA, priority 2015, published 2019).

T1: CD39 mutant 4 (D150A, E153S, R154A, S157K, N158A, L278F) (human, UniProt P49961 1-510)
T1 construct: Transfected in HEK293T cells
T1 chain: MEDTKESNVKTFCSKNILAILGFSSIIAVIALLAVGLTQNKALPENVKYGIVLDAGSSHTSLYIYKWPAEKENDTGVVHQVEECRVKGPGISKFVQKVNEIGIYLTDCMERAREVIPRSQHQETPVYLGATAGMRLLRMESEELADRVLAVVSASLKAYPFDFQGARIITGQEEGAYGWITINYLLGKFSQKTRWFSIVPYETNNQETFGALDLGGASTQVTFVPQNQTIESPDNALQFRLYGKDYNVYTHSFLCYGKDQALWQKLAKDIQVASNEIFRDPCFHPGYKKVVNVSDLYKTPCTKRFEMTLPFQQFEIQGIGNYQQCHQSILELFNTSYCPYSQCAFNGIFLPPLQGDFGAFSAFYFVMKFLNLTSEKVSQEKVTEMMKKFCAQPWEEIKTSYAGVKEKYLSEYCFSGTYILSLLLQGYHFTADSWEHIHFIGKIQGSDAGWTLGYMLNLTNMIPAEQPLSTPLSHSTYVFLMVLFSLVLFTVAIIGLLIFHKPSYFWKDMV

T2: Recombinant human CD39-L3 (NTPDase3, ENTPD3) (human, UniProt O75355 44-485, limits assumed)
T2 construct: Coated in ELISA
T2 sequence: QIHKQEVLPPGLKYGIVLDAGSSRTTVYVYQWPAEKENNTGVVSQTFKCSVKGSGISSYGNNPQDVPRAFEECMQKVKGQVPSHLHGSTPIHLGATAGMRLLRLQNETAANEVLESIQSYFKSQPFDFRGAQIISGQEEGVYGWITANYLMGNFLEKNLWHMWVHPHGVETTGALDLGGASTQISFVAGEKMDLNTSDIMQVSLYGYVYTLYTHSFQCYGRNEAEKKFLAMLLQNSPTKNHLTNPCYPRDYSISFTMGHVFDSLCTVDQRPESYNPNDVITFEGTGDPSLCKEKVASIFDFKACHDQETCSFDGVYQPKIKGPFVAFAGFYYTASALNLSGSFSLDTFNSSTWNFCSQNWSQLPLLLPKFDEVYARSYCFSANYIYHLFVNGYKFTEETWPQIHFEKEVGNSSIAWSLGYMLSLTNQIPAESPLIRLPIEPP

T3: Human CD39 (vascular CD39, NTPDase1, ENTPD1) expressed at the cell surface (human, UniProt P49961 1-510)
T3 sequence: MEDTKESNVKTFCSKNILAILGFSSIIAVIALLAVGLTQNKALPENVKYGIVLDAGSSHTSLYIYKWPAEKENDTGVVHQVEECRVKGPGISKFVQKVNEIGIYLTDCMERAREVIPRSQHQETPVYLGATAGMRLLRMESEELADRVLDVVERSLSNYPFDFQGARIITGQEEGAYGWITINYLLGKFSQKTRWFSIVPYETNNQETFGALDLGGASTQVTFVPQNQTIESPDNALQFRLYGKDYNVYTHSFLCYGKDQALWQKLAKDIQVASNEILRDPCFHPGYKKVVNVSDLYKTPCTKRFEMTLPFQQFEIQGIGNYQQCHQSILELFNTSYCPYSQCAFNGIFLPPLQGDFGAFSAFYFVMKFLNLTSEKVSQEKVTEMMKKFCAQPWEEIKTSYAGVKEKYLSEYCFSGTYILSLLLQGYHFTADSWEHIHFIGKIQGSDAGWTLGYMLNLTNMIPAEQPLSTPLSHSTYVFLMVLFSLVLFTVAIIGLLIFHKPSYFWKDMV

T4: CD39 mutant 19 (R138A, M139A, E142K) (human, UniProt P49961 1-510)
T4 construct: Transfected in HEK293T cells
T4 chain: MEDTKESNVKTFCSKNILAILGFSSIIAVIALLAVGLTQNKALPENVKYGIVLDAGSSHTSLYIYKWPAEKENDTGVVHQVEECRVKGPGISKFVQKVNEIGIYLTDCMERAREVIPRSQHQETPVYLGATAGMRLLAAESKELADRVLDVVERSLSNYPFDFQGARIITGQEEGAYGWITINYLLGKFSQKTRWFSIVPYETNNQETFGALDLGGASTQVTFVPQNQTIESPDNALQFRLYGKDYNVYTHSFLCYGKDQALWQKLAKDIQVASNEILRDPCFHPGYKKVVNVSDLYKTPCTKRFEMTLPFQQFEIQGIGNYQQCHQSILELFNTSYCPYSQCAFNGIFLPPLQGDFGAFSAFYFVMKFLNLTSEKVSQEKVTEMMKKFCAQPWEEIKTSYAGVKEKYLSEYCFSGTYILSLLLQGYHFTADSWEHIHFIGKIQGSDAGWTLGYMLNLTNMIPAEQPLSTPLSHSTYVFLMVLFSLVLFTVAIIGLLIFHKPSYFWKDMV

T5: CD39 (Homo sapiens, UniProt P49961)
T5 construct: cells that endogenously express CD39 at their surface, e.g. regulatory T (TReg) cells, B cells, cancer cells, lymphoma cells (e.g. Ramos cells); endogenous in cells; host or cells: Ramos human lymphoma cells
T5 sequence (P49961 1-510): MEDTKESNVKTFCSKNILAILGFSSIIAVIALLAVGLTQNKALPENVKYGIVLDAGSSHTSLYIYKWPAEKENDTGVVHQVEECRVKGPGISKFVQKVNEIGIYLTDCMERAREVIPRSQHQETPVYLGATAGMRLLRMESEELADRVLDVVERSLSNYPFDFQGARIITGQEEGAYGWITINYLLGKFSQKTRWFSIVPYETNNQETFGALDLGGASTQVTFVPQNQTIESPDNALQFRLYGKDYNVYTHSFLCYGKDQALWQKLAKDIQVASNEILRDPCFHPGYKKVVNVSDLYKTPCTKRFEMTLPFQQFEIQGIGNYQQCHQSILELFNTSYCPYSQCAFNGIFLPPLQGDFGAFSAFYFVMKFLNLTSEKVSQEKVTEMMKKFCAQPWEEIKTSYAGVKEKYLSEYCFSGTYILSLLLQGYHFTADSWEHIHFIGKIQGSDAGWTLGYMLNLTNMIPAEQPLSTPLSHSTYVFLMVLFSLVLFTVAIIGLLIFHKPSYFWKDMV

B1: Antibody I-391, Fc silent recombinant chimeric human IgG1 with heavy chain N297Q mutation (antibody, V domains shown)
VH: QIQLVQSGPELKKPGETVKISCKASGYTFRNYGMNWVKQAPGKGLKWMGWINTYTGEPTYADDFKGRFAFSLATSASTAYLQISNLKNEDTATYFCARKAYYGSNYYFDYWGQGTTLTVSS
VL: DIVMTQSHKFMSTSVGDRVSITCKASQDVSTAVAWYQQKPGQSPKLLIYSASYRYTGVPDRFTGSGSGTDFTFTISTVQAEDLAVYYCQQHYTTPPYTFGGGTKLEIKR
B2: I-392: anti-CD39 antibody, VH SEQ ID NO: 8 and VL SEQ ID NO: 9, chimeric human IgG1 with N297Q mutation (antibody, V domains shown)
VH: QIQLVQSGPEVKKPRETVKISCKASGYTFTHYGMNWVKQAPGKGLKWMGWINTYTGEPTYADDFKGRFAFSLEASASTAYLQINNLKNEDTATYFCARRRYEGNYVFYYFDYWGQGTTLTVSS
VL: DIQMTQSPASLSASVGETVTITCRASENIYSYFSWYQQKQGKSPQLLVYTAKTLAEGVPSRFSGSGSGTQFSLKINSLQPEDFGSYYCQHHYVTPYTFGGGTKLEIK

Assays:
[1] = biological target: T1, CD39 mutant 4 (D150A, E153S, R154A, …); assay: flow cytometry, HEK293T cells transfected with mutant 4
[2] = biological target: T2, Recombinant human CD39-L3 (NTPDase3, …); assay: ELISA on coated RechuCD39-L3, OD 450 nm [top panel CHS2-I-391]
Procedure: Wells were washed in TBS Tween 20, and further saturated 2H at RT in TBS Blocking buffer. Dose range concentration of primary antibody was incubated in TBS blocking buffer for 2h at RT. Wells were washed in TBS Tween 20. […] Optical density was measured on Enspire at OD=450.

[3] = biological target: T3, Human CD39 (vascular CD39, NTPDase1, …); assay: cell-based or functional assay
[4] = biological target: T4, CD39 mutant 19 (R138A, M139A, E142K); assay: flow cytometry, HEK293T cells transfected with mutant 19
CD39 = biological target: T5, CD39; assay: Inhibition of CD39 enzymatic activity in Ramos cells, AMP production by Maldi TOF mass spectrometry; format: cell-based
Procedure: The inhibition of CD39 enzymatic activity by antibodies was evaluated by Maldi TOF mass spectrometry (production of AMP). This assay represents an assay that is relatively insensitive to down-modulation of CD39 expression. […] After washes, cells were incubated with anti-CD39 antibodies, isotype control, or ARL and 50 μM ATP for 30 minutes at 4° C. in PBS. AMP generated is quantified in supernatants by Maldi TOP.
The inhibition of CD39 enzymatic activity by antibodies was evaluated by Maldi TOF mass spectrometry (production of AMP). Briefly, 10^5 Ramos human lymphoma cells were incubated overnight at 37° C. with anti-CD39 antibodies or a chemical CD39 inhibitor (ARL 100 μM). After washes, cells were incubated with anti-CD39 antibodies, isotype control, or ARL and 50 μM ATP for 30 minutes at 4° C. in PBS. AMP generated is quantified in supernatants by Maldi TOP. Antibodies were used at 33 nM and ARL at […].

Molecule	binding result [1]	binding result [2]	EC50 (inhibition of 50% of the enzymatic activity of CD39 expressed by 100,000 Ramos cells), AMP generated, Maldi TOF [3] [nM]	binding result [4]	maximum inhibition achieved (CD39; Ramos cells, 50 μM ATP) [%]	blocking CD39 enzymatic activity (CD39; Ramos cells, Example 6)	EC50 (CD39; read-out: EC50 (inhibition of 50% of the enzymatic activity of CD39), 100,000 Ramos cells, 50 μM ATP, n=3) [nM]
B1	binds	no binding (tested: 50 ug/ml)	1.2	binds			
B2					93.4	very potent at blocking CD39 enzymatic activity	1.2
